In paper PMC6249252, “COMP and TSP-4 interact specifically with the novel GXKGHR motif only found in fibrillar collagens” (Scientific Reports, 2018):
Where two headings read alike, the source gives them in different places.

Key:
COMP [1] = target: T1, COMP (Homo sapiens, UniProt P49747); experiment: ELISA-style binding assay, COMP on coated collagen model peptides / collagen; conditions: for effect of additive in interaction buffer on COMP binding to peptide 5: peptide 5 coated, COMP in pure TBS-T with the indicated chemical compound, compared to pure TBS (Fig. 3b); for Kd: peptide or collagen coated at 10 µg/ml (500 ng per well) on ELISA plate, pentameric COMP at indicated concentrations, 1 h, room temperature, TBS-T with 0.25% BSA, anti-COMP antibody, four-parameter logistic fit, triplicates, read-out: Apparent KD
T1 sequence (P49747 21-757): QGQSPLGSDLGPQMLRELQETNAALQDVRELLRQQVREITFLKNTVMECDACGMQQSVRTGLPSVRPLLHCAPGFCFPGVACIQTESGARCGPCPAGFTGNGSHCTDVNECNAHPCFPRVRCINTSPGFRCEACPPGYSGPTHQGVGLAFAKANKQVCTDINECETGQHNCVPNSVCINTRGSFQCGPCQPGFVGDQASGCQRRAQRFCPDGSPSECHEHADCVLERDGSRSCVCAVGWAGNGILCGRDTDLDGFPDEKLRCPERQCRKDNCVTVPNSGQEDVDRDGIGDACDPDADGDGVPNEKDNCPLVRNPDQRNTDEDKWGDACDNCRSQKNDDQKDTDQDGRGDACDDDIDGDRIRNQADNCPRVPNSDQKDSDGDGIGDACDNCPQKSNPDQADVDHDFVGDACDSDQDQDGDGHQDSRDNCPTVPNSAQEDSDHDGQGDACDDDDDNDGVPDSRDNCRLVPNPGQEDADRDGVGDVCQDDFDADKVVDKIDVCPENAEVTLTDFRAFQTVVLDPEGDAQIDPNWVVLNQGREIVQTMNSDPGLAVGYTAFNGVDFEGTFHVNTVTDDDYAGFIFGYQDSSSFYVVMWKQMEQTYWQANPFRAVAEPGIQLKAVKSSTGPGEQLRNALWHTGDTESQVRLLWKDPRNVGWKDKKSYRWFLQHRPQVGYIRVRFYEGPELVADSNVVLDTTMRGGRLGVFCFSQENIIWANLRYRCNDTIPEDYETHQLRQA
Procedure: (§1) For ELISA-style binding assays, rat tail collagen I (BD Bioscience) or the indicated collagen model peptides were diluted in TBS and coated at 10 µg/ml (500 ng per well) overnight at 4 °C. Further steps were performed at room temperature. After washing with TBS-T (TBS containing 0.05% (vol/vol) Tween-20), plates were blocked for 1 h with 1% (wt/vol) BSA in TBS. Strep-tagged COMP was added at indicated concentrations in TBS-T containing 0.25% (wt/vol) BSA) and incubated for 1 h. For assays with addition of cations pure TBS-T was used as interaction buffer. After washing away unbound protein with TBS-T, bound COMP was detected with a 1:3000 dilution of a specific polyclonal antibody against bovine COMP in interaction buffer. The antibody was raised in rabbit against bovine COMP purified from articular cartilage and characterised before in various studies[46]–[48]. The TSP-4 antibody was raised in guinea pigs and was previously described and characterised[30],[49]. The primary antibodies were detected with an HRP–conjugated swine anti-rabbit (DAKO, P0399) or rabbit anti-guinea pig antibody (Sigma, A5545). Bound secondary antibodies were visualised with tetramethylbenzidine as substrate, the reaction was either measured directly at 370 nm or stopped with 10% H2SO4 and measured at 450 nm. Data were analysed using Origin 2017 and fitted using a four-parameter logistic model.

[2] = Dynamic light scattering of COMP solution with ZnCl; format: physicochemical; conditions: 20 °C, cumulant radius over time
Procedure: Dynamic light scattering (DLS) was measured with a Wyatt DynaPro Nanostar using the disposable cuvettes (UVettes, Eppendorf). Data was acquired as a mean of 5 acquisitions, measured each for 5 s at a fixed temperature of 20 °C. The laser was set to auto-attenuation and the data analysed with the Dynamics software from Wyatt. Graph show the cumulant radius versus time for COMP with indicated ZnCl2 concentrations.

[3] = CD spectroscopy thermal unfolding of collagen model peptides; format: physicochemical; conditions: CD spectroscopy at 210 nm, heated at 1 °C/min, approx. 0.1 mg/ml, 1 mm cell, 4 parameter logistic fit
Procedure: CD spectra of the col2p5 peptide and its derivatives were measured using a Jasco J–715 equipped with a peltier-element cuvette cooler. The samples were heated at 1 °C/min in a 1 mm path length quartz cell at approx. 0.1 mg/ml. Thermal unfolding was measured in a range between 20 °C and 70–90 °C and specific ellipticity recorded at 210 nm ever 1 °C. Additionally, every 5 °C far-UV spectra (200–250 nm) were recorded in triplicates. Data was fitted with a 4 parameter logistic fit using Origin 2017[45].

TSP-4 = TSP-4 (UniProt P35443); experiment: ELISA-style binding assay, TSP-4 on coated GVKGHR foldon construct; conditions: GVKGHR foldon construct coated to ELISA plate, incubated with TSP4, anti-TSP4 antibody; fitted; triplicates
Chain of TSP-4 (P35443 27-961): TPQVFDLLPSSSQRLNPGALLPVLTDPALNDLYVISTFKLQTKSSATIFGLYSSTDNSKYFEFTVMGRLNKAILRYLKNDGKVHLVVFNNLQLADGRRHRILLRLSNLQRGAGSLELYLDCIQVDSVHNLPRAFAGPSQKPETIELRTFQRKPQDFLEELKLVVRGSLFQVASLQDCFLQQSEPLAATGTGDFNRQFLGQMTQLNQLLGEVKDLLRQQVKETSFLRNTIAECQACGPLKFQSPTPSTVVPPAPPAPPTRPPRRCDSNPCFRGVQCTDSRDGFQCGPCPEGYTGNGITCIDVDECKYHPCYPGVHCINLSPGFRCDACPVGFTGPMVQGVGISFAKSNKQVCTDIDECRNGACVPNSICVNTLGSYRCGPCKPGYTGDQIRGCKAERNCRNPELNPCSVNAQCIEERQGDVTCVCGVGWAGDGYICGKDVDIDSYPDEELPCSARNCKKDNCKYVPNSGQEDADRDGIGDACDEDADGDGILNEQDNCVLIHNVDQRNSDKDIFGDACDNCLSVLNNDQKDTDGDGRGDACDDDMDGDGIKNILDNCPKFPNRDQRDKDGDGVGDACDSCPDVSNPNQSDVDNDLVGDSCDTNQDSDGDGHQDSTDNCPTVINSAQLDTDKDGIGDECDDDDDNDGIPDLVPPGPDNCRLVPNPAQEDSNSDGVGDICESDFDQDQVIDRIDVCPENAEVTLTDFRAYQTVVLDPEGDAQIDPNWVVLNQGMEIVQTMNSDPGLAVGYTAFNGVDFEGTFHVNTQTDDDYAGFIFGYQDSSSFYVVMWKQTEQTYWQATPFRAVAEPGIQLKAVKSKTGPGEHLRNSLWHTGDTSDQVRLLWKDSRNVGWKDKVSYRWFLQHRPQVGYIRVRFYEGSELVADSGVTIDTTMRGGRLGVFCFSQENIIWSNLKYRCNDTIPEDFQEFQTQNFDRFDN
Procedure: as §1

COMP [4] = target: T1, COMP; conditions: read-out: dissociation constant for COMP reported for collagen II; cited from earlier work
Procedure: To elucidate the binding site of COMP on the collagen II helix we incubated pentameric COMP at 200 nM concentration with our generated collagen II foldon library (Fig. 2). […] To confirm our finding and get proper binding affinities we coated the peptide 5 and incubated it with indicated concentration of COMP (Fig. 3a). The dissociation constant for COMP and pep5 (19.3 ± 12 nM) was slightly higher than reported for collagen II (1.72 ± 0.16 nM)[10]. ...

Kd (COMP [1]) [nM] | Compound | Melting point (°C) [3] [°C] | also measured
 | O=C(O)CN(CCN(CC(=O)O)CC(=O)O)CC(=O)O [EDTA, reference compound] |  | effect of additive in interaction buffer on COMP binding to peptide 5 (COMP [1]): reduced the binding significantly
 | c1cnc2c(c1)ccc1cccnc12 [phenanthroline, 1,10-phenanthroline, reference compound] |  | effect of additive in interaction buffer on COMP binding to peptide 5 (COMP [1]): does not reduce the binding compared to pure TBS
 | [Cl-].[Cl-].[Zn+2] [zinc, reference compound] |  | effect of additive in interaction buffer on COMP binding to peptide 5 (COMP [1]): increased the affinity towards the peptides
 | COMP: recombinant pentameric cartilage oligomeric matrix protein, Strep-tagged, expressed in HEK293 (EBNA) cells |  | hydrodynamic radius via DLS (aggregation) ([2]; 0.0 mM versus 0.1 mM ZnCl): could not detect any difference; hydrodynamic radius via DLS (aggregation) ([2]; addition of 1 mM ZnCl): starts to aggregate dramatically
19.3 ± 12.4 | GARGFPGTPGLPGVKGHRGYPGLDGAK [peptide 5, E. coli expressed collagen II library peptide in NStrep-(GPP)6-GUEST-(GPP)6-foldon context] | 36.1 ± 0.5 | 
4.1 ± 0.8 | GEAGEPGERGLKGHRGFTGLQGLPGPP [peptide 52, library peptide with the C-terminal GLKGHR motif of collagen II, foldon context] |  | 
2.26 ± 0.39 | GLPGPKGHR | 52.5 ± 0.6 | 
 | GLPGVKGHP | 47.9 ± 0.4 | 
 | GLPGVKGHR [unique region of pep5 in N-Strep-(GPP)6-GUEST-(GPP)6-foldon context] | 48.2 ± 0.6 | COMP binding to minimal motif peptides (ELISA signal) (COMP [1]; COMP at 400 nM, one-point measurements (Fig. 4a), or at indicated concentrations (Fig. 4b)): sufficient for binding
 | GLPGVPGHR | 51.1 ± 0.3 | 
1.61 ± 0.29 | GVKGHR | 56.5 ± 0.6 | Kd (TSP-4): 0.56 ± 0.05 nM
 | collagen II: collagen II, literature value for COMP binding |  | Kd (COMP [4]): 1.72 ± 0.16 nM
